Publication PMC2424174 (2008)
Where no end group is shown, it is not given here. Ahx = NCCCCCC(=O)O

Experiments:
[1] = target: Nucleolin (cell surface, HUVECs) (Homo sapiens, UniProt P19338); test: iodinated HB-19 cell binding displaced by unlabeled HB-19
[2] = target: Nucleolin (cell surface, MDA-MB-231 cells) (Homo sapiens, UniProt P19338); test: as above
Chain of Nucleolin (cell surface, MDA-MB-231 cells) (P19338 2-710): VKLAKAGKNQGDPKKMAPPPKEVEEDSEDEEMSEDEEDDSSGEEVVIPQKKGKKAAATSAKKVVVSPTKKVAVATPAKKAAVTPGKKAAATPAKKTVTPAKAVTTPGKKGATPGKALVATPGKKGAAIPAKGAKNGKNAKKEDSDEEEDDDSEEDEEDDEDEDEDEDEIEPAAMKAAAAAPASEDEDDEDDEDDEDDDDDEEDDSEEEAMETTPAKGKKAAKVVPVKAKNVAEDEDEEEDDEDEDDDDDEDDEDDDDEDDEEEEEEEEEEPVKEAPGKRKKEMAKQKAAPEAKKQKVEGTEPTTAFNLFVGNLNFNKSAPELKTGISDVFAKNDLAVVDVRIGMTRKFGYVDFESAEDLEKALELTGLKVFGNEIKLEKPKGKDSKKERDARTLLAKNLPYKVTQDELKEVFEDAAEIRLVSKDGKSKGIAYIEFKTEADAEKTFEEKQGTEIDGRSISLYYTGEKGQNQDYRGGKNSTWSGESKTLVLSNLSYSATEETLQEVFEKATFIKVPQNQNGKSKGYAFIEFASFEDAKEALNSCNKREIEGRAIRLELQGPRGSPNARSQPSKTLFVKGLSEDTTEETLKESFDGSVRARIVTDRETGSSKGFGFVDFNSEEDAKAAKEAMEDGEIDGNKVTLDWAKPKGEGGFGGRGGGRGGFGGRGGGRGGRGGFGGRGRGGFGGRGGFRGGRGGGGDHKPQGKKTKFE

Chain of Nucleolin (cell surface, HUVECs) (P19338 2-710): as above

Kd [1]: 825 nM
Kd [2]: 312 nM
B1: HB-19 pseudopeptide (peptide)
chain: KKKGPKEK-{Ahx-NH2}
modifications: also: pentavalent Lys-psi(CH2N)-Pro-Arg on template, attachment places not given here, reduced psi(CH2N) bond Lys-Pro
